In the supplement of paper PMC10126150:
± gives the standard deviation of the averaged measurements.

System: ATP
Assay: switch fluorescence ratio, 500 uM ATP over buffer (Cy3 cluster intensity, sum of 5 cycles each) (fold (ratio)); higher = stronger signal-on switching upon ATP binding; sequences stand for … in TCGTCGGCAGCGTCAGATGTGTATAAGAGACAGTTTTTTTTTTTTTTTTTTTTTTTTT…TC
Details: aptamer strand: ATP DNA aptamer (quencher-CACCTGGGGGAGTATTGCGGAGGAAGG + anchor), 100 nM annealed; ATP concentration: 500 uM
Outline: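 Per cluster, summed Cy3 intensity from the target cycles was divided by that from the buffer cycles to give the fluorescence ratio, then averaged per switch-domain sequence. Clusters outside 100-1000 RFU were excluded. The Cy3-labelled switching-strand clusters, on a modified Illumina MiSeq flow-cell, were annealed to 100 nM quencher-labelled ATP aptamer and imaged in selection buffer, then after 15 min with 500 uM ATP at 22 °C, for five cycles with NaOH stripping and re-annealing between them.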
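Also: ATP exposure 15 min at 22 °C before imaging.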

Sequence	switch fluorescence ratio
TTGGTCGGGG	0.991 ± 0.023
TTGGTCGGTC	0.985 ± 0.036
TTGGTCTAGA	1.01 ± 0.054
TTGGTCTTGT	1.001 ± 0.006
TTGGTGAAGG	1.01 ± 0.023
TTGGTGAGTT	0.981 ± 0.029
TTGGTGCCCG	1.01 ± 0.037
TTGGTGGATC	1.03 ± 0.03
TTGGTGGTTT	0.988 ± 0.027
TTGGTGTACT	1.01 ± 0.019
TTGGTGTGTC	1.04 ± 0.07
TTGGTGTTGT	0.989 ± 0.027
TTGGTGTTTT	1.02 ± 0.03
TTGGTTACTG	1.03 ± 0.07
TTGGTTATGC	0.998 ± 0.045
TTGGTTATGT	0.969 ± 0.017
TTGGTTGAAC	0.946 ± 0.032
TTGGTTGGAG	0.996 ± 0.021
TTGGTTGTAT	1 ± 0.011
TTGGTTGTGG	0.972 ± 0.018
TTGGTTGTGT	1.01 ± 0.015
TTGGTTTCTT	1.01 ± 0.023
TTGGTTTGCG	0.962 ± 0.017
TTGGTTTGGG	0.98 ± 0.022
TTGGTTTGTG	1.01 ± 0.035
TTGGTTTTAG	1 ± 0.033

Sequence	switch fluorescence ratio
TTGGTTTTGA	0.988 ± 0.042
TTGTAAAA	0.95579 ± 0.00088
TTGTAAGGTC	1 ± 0.031
TTGTAAGTGG	0.97 ± 0.0078
TTGTAATAGT	1.026 ± 0.00026
TTGTACAA	0.993 ± 0.017
TTGTAGAGGG	1.01 ± 0.029
TTGTATAATT	0.969 ± 0.038
TTGTATAGGG	1 ± 0.025
TTGTATCAGG	1 ± 0.02
TTGTATCTTC	0.993 ± 0.041
TTGTATGAAG	0.951 ± 0.061
TTGTATGGTT	1.02 ± 0.019
TTGTATGTTT	0.98 ± 0.023
TTGTATTAAT	0.975 ± 0.031
TTGTATTATG	1.008 ± 0.0095
TTGTATTT	0.979 ± 0.022
TTGTCACGG	0.986 ± 0.035
TTGTCCAAAT	0.986 ± 0.0099
TTGTCCAGGA	0.977 ± 0.048
TTGTCCCCGG	1.58 ± 0.68
TTGTCGTATC	1 ± 0.019
TTGTGAGGGC	1.02 ± 0.041
TTGTGAGGGT	0.981 ± 0.033
TTGTGAGGTT	1.06 ± 0.088
TTGTGATAGT	1.0025 ± 0.00064

Sequence	switch fluorescence ratio
TTGTGATGGC	1.03 ± 0.11
TTGTGATGTC	1.031 ± 0.0048
TTGTGCGCGC	1.022 ± 0.0018
TTGTGGAGCT	0.999 ± 0.016
TTGTGGATGG	0.978 ± 0.039
TTGTGGCAAG	1 ± 0.018
TTGTGGCCGT	1.039 ± 0.0035
TTGTGGCGCC	0.958 ± 0.021
TTGTGGGATA	1.01 ± 0.011
TTGTGGGCAG	1.03 ± 0.032
TTGTGGGTCG	0.984 ± 0.031
TTGTGGTTGC	1.02 ± 0.013
TTGTGGTTGT	0.966 ± 0.016
TTGTGTAATT	1.06 ± 0.05
TTGTGTACCG	0.96 ± 0.048
TTGTGTATCA	0.993 ± 0.035
TTGTGTTACG	0.996 ± 0.047
TTGTGTTGG	1.03 ± 0.019
TTGTTAAAGT	1 ± 0.038
TTGTTAAATG	1.02 ± 0.056
TTGTTAATTT	1.02 ± 0.05
TTGTTACAGA	1.004 ± 0.0078
TTGTTACTGG	1.01 ± 0.03
TTGTTAGGCT	1.03 ± 0.041
TTGTTAGGTG	1.132 ± 0.0016
TTGTTAGTAT	0.996 ± 0.021

Sequence	switch fluorescence ratio
TTGTTAGTCT	0.982 ± 0.024
TTGTTAGTGG	1.01 ± 0.031
TTGTTATAGG	1.06 ± 0.14
TTGTTCCTTT	0.9847 ± 0.0076
TTGTTCGTTT	0.986 ± 0.025
TTGTTGAATA	1.003 ± 0.0016
TTGTTGGGCC	1.01 ± 0.036
TTGTTGGTGG	0.9856 ± 0.0066
TTGTTGTGAC	0.994 ± 0.028
TTGTTGTGCT	0.961 ± 0.033
TTGTTGTTCG	1.01 ± 0.034
TTGTTTACCG	0.9557 ± 0.0045
TTGTTTAGGA	0.9763 ± 0.0012
TTGTTTCAAG	1.01 ± 0.029
TTGTTTCTTG	0.981 ± 0.049
TTGTTTGGGT	0.984 ± 0.014
TTGTTTTCCA	0.987 ± 0.018
TTGTTTTGCT	0.999 ± 0.073
TTGTTTTTCG	0.978 ± 0.027
TTGTTTTTTG	1.01 ± 0.034
TTTAAAAAAG	1.02 ± 0.028
TTTAAAAGAT	1.01 ± 0.035
TTTAAAAGGT	1 ± 0.011
TTTAAAATGG	0.9998 ± 0.0073
TTTAAACCGG	1.02 ± 0.016
TTTAAAGAAT	1.04 ± 0.079

Sequence	switch fluorescence ratio
TTTAAAGCCC	1.01 ± 0.043
TTTAAAGGAT	1 ± 0.024
TTTAAAGGCA	0.991 ± 0.011
TTTAAAGTGA	1 ± 0.032
TTTAAATCGG	0.979 ± 0.04
TTTAACAGTT	1.01 ± 0.051
TTTAACCAAT	1.02 ± 0.064
TTTAACCTTT	1.05 ± 0.051
TTTAACGTTG	0.989 ± 0.04
TTTAACTAGA	1.041 ± 0.0061
TTTAACTGCG	1.02 ± 0.036
TTTAACTTAT	1.03 ± 0.02
TTTAACTTTG	1.011 ± 0.0084
TTTAAGAGAA	1.001 ± 0.0059
TTTAAGAGCG	1.02 ± 0.013
TTTAAGAGGT	0.982 ± 0.023
TTTAAGAGTA	1 ± 0.067
TTTAAGCAGA	1.04 ± 0.041
TTTAAGCCCC	0.9854 ± 0.0082
TTTAAGGCGT	1.03 ± 0.016
TTTAAGGGCG	0.981 ± 0.045
TTTAAGGGGG	1.15 ± 0.28
TTTAAGTAAG	1.02 ± 0.012
TTTAAGTCTA	0.992 ± 0.039
TTTAAGTGAT	1.01 ± 0.057
TTTAAGTGTC	1.09 ± 0.11

Sequence	switch fluorescence ratio
TTTAAGTTTT	1 ± 0.022
TTTAATAGCT	1 ± 0.04
TTTAATATTT	1.04 ± 0.077
TTTAATCCGT	1.01 ± 0.055
TTTAATCTGG	0.968 ± 0.021
TTTAATGA	0.976 ± 0.011
TTTAATGGAA	0.988 ± 0.012
TTTAATGTAT	1.19 ± 0.3
TTTAATGTTG	1.014 ± 0.0082
TTTAATTTGG	0.9816 ± 0.0073
TTTAATTTTC	1.05 ± 0.14
TTTACAACGC	1.05 ± 0.012
TTTACAGGGA	1.027 ± 0.0086
TTTACATTTT	0.998 ± 0.044
TTTACCCCGC	1.63 ± 0.58
TTTACGATGC	1.05 ± 0.0062
TTTACGGAGA	1.03 ± 0.041
TTTACGGCTA	1.06 ± 0.014
TTTACGGGAT	1.06 ± 0.036
TTTACGGTCA	1.04 ± 0.039
TTTACTAGGT	0.959 ± 0.026
TTTACTCGGA	1.033 ± 0.0099
TTTACTTA	1.0157 ± 0.00064
